Test results as given in US20120065136A1 (UNIVERSITY OF ROCHESTER, published 2012).

T1: A3C1C2 subunit of factor VIII (human, UniProt P00451 1709-2351)
T1 sequence: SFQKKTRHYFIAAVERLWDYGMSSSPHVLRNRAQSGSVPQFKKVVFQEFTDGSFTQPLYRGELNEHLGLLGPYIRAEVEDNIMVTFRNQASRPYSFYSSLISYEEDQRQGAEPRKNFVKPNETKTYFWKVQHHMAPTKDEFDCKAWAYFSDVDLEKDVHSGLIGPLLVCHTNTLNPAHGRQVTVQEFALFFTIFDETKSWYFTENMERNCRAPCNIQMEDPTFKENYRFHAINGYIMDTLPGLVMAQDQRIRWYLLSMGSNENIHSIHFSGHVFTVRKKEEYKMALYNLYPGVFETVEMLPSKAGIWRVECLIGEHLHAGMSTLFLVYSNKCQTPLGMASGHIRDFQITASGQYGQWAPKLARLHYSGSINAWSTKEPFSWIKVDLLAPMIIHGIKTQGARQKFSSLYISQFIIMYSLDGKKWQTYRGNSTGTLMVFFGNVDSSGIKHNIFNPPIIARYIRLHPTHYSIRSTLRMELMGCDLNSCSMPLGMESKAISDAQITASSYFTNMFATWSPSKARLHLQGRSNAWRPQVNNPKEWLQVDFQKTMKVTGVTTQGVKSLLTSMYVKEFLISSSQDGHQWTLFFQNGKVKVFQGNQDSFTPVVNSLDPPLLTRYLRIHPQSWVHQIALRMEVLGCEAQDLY


Key:
[1] = target: T1, A3C1C2 subunit of factor VIII; assay: cell-based or functional assay
[2] = target: T1, A3C1C2 subunit of factor VIII; assay: fluorescence titration of acrylodan-labeled A1 (15 nM) with A3C1C2 (0-300 nM), pH 7.4, quadratic fit
Protocol: (§1) Purified A1 subunit from WT and Ala108Ile factor VIII was labeled with acrylodan by sulfhydryl specific protein modification as previously described (Wakabayashi et al., “Metal Ion-independent Association of Factor VIII Subunits and the Roles of Calcium and Copper Ions for Cofactor Activity and Inter-subunit Affinity,” Biochemistry 40:10293-10300 (2001), which is hereby incorporated by reference in its entirety). A1 (15 nM) from WT or Ala108Ile factor VIII was reconstituted with A3C1C2 subunit (0-300 nM) at 37° C. for 2 h in buffer B at pH 7.4. Fluorescence measurements were performed using an Aminco-Bowman Series 2 Luminescence Spectrometer (Thermo Spectronic, Rochester, N.Y.) at 23° C. at an excitation wavelength of 395 nm (2 nm bandwidth). Fluorescence emission was monitored at 480-490 nm (8 nm bandwidth) and all spectra were corrected for background. Data were fitted to a quadratic equation by non-linear least squares regression and parameter values were obtained.
(§2) To assess the affinity of the Ala108Ile A1 domain for C2 domain, the purified factor VIII variant and WT were treated with thrombin and the A1 subunits were separately purified as described supra. A1 subunits were then reacted with the environment-sensitive fluorescent probe, acrylodan, and these reagents were used to probe binding with the A3C1C2 subunit. […]

[3] = target: T1, A3C1C2 subunit of factor VIII; assay: changes in fluorescence of acrylodan labeled-A1 subunits
Protocol: as §1, §2

[4] = target: T1, A3C1C2 subunit of factor VIII; assay: fluorescence titration of acrylodan-labeled A1 with A3C1C2
Protocol: as §1, §2

Binder	fold reduction of decay rate against WT A1 [1]	Kd [2]	fold increase in binding affinity against WT [3]	fold increase in affinity against WT A1 [4]
A1 subunit from Ala108Ile factor VIII (other) ATRRYYLGAVELSWDYMQSDLGELPVDARFPPRVPKSFPFNTSVVYKKTLFVEFTVHLFNIAKPRPPWMGLLGPTIQAEVYDTVVITLKNMASHPVSLHAVGVSYWKISEGAEYDDQTSQREKEDDKVFPGGSHTYVWQVLKENGPMASDPLCLTYSYLSHVDLVKDLNSGLIGALLVCREGSLAKEKTQTLHKFILLFAVFDEGKSWHSETKNSLMQDRDAASARAWPKMHTVNGYVNRSLPGLIGCHRKSVYWHVIGMGTTPEVHSIFLEGHTFLVRNHRQASLEISPITFLTAQTLLMDLGQFLLFCHISSHQHDGMEAYVKVDSCPEEPQLRMKNNEEAEDYDDDLTDSEMDVVRFDDDNSPSFIQIR	4.6 fold	–	–	–
acrylodan-labeled A1 subunit from WT factor VIII (other, acrylodan on a free thiol, likely Cys310, A1 subunit purified from thrombin-cleaved, EDTA-treated recombinant B-domainless WT factor VIII (BHK cells), then labelled with acrylodan; also called AcA1 (WT); WT A1 subunit) ATRRYYLGAVELSWDYMQSDLGELPVDARFPPRVPKSFPFNTSVVYKKTLFVEFTVHLFNIAKPRPPWMGLLGPTIQAEVYDTVVITLKNMASHPVSLHAVGVSYWKASEGAEYDDQTSQREKEDDKVFPGGSHTYVWQVLKENGPMASDPLCLTYSYLSHVDLVKDLNSGLIGALLVCREGSLAKEKTQTLHKFILLFAVFDEGKSWHSETKNSLMQDRDAASARAWPKMHTVNGYVNRSLPGLIGCHRKSVYWHVIGMGTTPEVHSIFLEGHTFLVRNHRQASLEISPITFLTAQTLLMDLGQFLLFCHISSHQHDGMEAYVKVDSCPEEPQLRMKNNEEAEDYDDDLTDSEMDVVRFDDDNSPSFIQIR	–	88.7 nM	–	–
acrylodan-labeled A1 subunit from Ala108Ile factor VIII (other, acrylodan on a free thiol, likely Cys310, A1 subunit purified from thrombin-cleaved, EDTA-treated B-domainless Ala108Ile factor VIII, then labelled with acrylodan; also called AcA1 (Ala108Ile); Ala108Ile A1) ATRRYYLGAVELSWDYMQSDLGELPVDARFPPRVPKSFPFNTSVVYKKTLFVEFTVHLFNIAKPRPPWMGLLGPTIQAEVYDTVVITLKNMASHPVSLHAVGVSYWKISEGAEYDDQTSQREKEDDKVFPGGSHTYVWQVLKENGPMASDPLCLTYSYLSHVDLVKDLNSGLIGALLVCREGSLAKEKTQTLHKFILLFAVFDEGKSWHSETKNSLMQDRDAASARAWPKMHTVNGYVNRSLPGLIGCHRKSVYWHVIGMGTTPEVHSIFLEGHTFLVRNHRQASLEISPITFLTAQTLLMDLGQFLLFCHISSHQHDGMEAYVKVDSCPEEPQLRMKNNEEAEDYDDDLTDSEMDVVRFDDDNSPSFIQIR	–	24.1 nM	~3.7 fold	~4 fold
